In PMC3043095:

Assays:
[1] = molecular target: leafhopper actin (Circulifer haematoceps, Ciha-1 cells) (Circulifer haematoceps (endogenous in Ciha-1))
[2] = molecular target: leafhopper actin (Circulifer haematoceps, Ciha-1 cells) (Circulifer haematoceps (endogenous in Ciha-1)); remark: listed apart in the source

Q: With “His6-tagged PGK-FL5 (S. citri PGK amino acids 49 to 154) (from UniProt Q7WTU1 49-154) (domain or fragment)” as the substance, how does the reduction of S. citri internalization into Ciha-1 cells (gentamicin protection assay) after preincubation of cells with 50 and 400 µg/ml PGK-FL5 (45% and 80%) (% reduction of internalization) [1] read?
A: The reduction of S. citri internalization into Ciha-1 cells (gentamicin protection assay) after preincubation of cells with 50 and 400 µg/ml PGK-FL5 (45% and 80%) (% reduction of internalization) was 80.

Q: And the S. citri transmission by infected leafhoppers injected with 0.2 µg PGK-FL5: relative percentage of batches with positive culture (phosphate buffer = 100) (% relative to phosphate buffer control) [2]?
A: Its S. citri transmission by infected leafhoppers injected with 0.2 µg PGK-FL5: relative percentage of batches with positive culture (phosphate buffer = 100) (% relative to phosphate buffer control) is 58.6.

Q: Which S. citri transmission by infected leafhoppers injected with 0.2 µg PGK-FL4: relative percentage of batches with positive culture (phosphate buffer = 100) (% relative to phosphate buffer control) [2] does the source give for “His6-tagged PGK-FL4 (S. citri PGK amino acids 101 to 412) (from UniProt Q7WTU1 101-412) (domain or fragment)” here?
A: Its S. citri transmission by infected leafhoppers injected with 0.2 µg PGK-FL4: relative percentage of batches with positive culture (phosphate buffer = 100) (% relative to phosphate buffer control) is 101.

Q: “Spiroplasma citri phosphoglycerate kinase, His6-tagged, full length (from UniProt Q7WTU1 1-412) (enzyme)” was tested. Which inhibition of S. citri internalization into Ciha-1 cells (gentamicin protection assay) after preincubation of cells with 400 µg/ml His6-tagged PGK (% inhibition of invasion) [1] did it give?
A: The inhibition of S. citri internalization into Ciha-1 cells (gentamicin protection assay) after preincubation of cells with 400 µg/ml His6-tagged PGK (% inhibition of invasion) was 85.

Q: What about the S. citri transmission by infected leafhoppers injected with 0.2 µg His6-tagged PGK: relative percentage of batches with positive culture (phosphate buffer = 100) (% relative to phosphate buffer control) [2] of the same substance?
A: The S. citri transmission by infected leafhoppers injected with 0.2 µg His6-tagged PGK: relative percentage of batches with positive culture (phosphate buffer = 100) (% relative to phosphate buffer control) was 51.7.
